The results in this text go back to FireProtDB.

First the molecules themselves.
B1: Alpha-lactalbumin, P00712 (parent)
chain: MMSFVSLLLVGILFHATQAEQLTKCEVFQKLKDLKDYGGVSLPEWVCTAFHTSGYDTQAIVQNNDSTEYGLFQINNKIWCKDDQNPHSRNICNISCDKFLDDDLTDDIVCAKKILDKVGINYWLAHKALCSEKLDQWLCEKL

The series covers variants of B1. The settings on record: Capra hircus; pH 7; 25 °C; GdnHCl; CD; sodium cacodylate 50 mM; NaCl 50 mM; reversible: yes; structure 1HFY; whole UniProt chain shown.

Turning to A49I, the “ddG of mutation (higher = less stable)” value is -2.4 kcal/mol, the denaturant m value worked out at 2.7 kcal/mol/M, the “denaturant midpoint (higher = more stable)” value (“denaturant midpoint” below) was 3.01 M and the unfolding free energy was 8.1 kcal/mol.

As for A49T, the “ddG of mutation (higher = less stable)” value was -1.7 kcal/mol, the denaturant m value was found to be 3.1 kcal/mol/M, the “denaturant midpoint” value turned out to be 2.44 M and the unfolding free energy was found to be 7.4 kcal/mol.

For the variant T48I, the “ddG of mutation (higher = less stable)” value is -4.4 kcal/mol, the denaturant m value worked out at 2.6 kcal/mol/M, the “denaturant midpoint” value amounted to 3.93 M and the unfolding free energy was found to be 10.1 kcal/mol.

With A49I T52I, the “ddG of mutation (higher = less stable)” value was -0.4 kcal/mol, the denaturant m value stood at 2.1 kcal/mol/M, the “denaturant midpoint” value turned out to be 2.85 M and the unfolding free energy turned out to be 6.1 kcal/mol.

Consider T52I, for which the “ddG of mutation (higher = less stable)” value is 1.1 kcal/mol, the denaturant m value stood at 2 kcal/mol/M, the “denaturant midpoint” value worked out at 2.31 M and the unfolding free energy is 4.6 kcal/mol.
